Results published in patent publication US6413759.

Legend:
[1] = target: T1, SKC-2-C42 (SKC-2 with deletion of the last 42 residues, 373-414)
T1 chain: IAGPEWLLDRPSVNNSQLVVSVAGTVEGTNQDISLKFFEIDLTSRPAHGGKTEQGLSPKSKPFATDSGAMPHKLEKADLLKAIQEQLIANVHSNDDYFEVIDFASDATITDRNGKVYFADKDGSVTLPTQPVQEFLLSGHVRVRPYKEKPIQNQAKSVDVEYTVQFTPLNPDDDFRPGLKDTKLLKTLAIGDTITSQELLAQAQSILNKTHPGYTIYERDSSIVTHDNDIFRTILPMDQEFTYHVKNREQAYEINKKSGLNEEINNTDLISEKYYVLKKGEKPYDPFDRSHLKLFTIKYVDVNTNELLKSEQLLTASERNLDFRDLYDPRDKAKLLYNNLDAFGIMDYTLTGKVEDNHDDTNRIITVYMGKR

[2] = target: T2, SKC-2-N13 (SKC-2 with deletion of the first 13 N-terminal residues)
T2 chain: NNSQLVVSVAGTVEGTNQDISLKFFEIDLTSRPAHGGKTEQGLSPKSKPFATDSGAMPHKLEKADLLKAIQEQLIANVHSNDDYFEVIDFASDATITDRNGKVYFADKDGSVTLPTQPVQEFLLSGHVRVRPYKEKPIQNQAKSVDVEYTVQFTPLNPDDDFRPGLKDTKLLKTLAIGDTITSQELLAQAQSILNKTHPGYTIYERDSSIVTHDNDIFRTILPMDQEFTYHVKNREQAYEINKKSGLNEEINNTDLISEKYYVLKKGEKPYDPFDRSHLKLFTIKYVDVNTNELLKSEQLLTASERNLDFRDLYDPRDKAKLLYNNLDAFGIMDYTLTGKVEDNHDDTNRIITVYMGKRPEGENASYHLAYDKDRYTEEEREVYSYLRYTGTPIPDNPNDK

B1: human plasminogen (protein)
chain: EPLDDYVNTQGASLFSVTKKQLGAGSIEECAAKCEEDEEFTCRAFQYHSKEQQCVIMAENRKSSIIIRMRDVVLFEKKVYLSECKTGNGKNYRGTMSKTKNGITCQKWSSTSPHRPRFSPATHPSEGLEENYCRNPDNDPQGPWCYTTDPEKRYDYCDILECEEECMHCSGENYDGKISKTMSGLECQAWDSQSPHAHGYIPSKFPNKNLKKNYCRNPDRELRPWCFTTDPNKRWELCDIPRCTTPPPSSGPTYQCLKGTGENYRGNVAVTVSGHTCQHWSAQTPHTHNRTPENFPCKNLDENYCRNPDGKRAPWCHTTNSQVRWEYCKIPSCDSSPVSTEQLAPTAPPELTPVVQDCYHGDGQSYRGTSSTTTTGKKCQSWSSMTPHRHQKTPENYPNAGLTMNYCRNPDADKGPWCFTTDPSVRWEYCNLKKCSGTEASVVAPPPVVLLPDVETPSEEDCMFGNGKGYRGKRATTVTGTPCQDWAAQEPHRHSIFTPETNPRAGLEKNYCRNPDGDVGGPWCYTTNPRKLYDYCDVPQCAAPSFDCGKPQVEPKKCPGRVVGGCVAHPHSWPWQVSLRTRFGMHFCGGTLISPEWVLTAAHCLEKSPRPSSYKVILGAHQEVNLEPHVQEIEVSRLFLEPTRKDIALLKLSSPAVITDKVIPACLPSPNYVVADRTECFITGWGETQGTFGAGLLKEAQLPVIENKVCNRYEFLNGRVQSTELCAGHLAGGTDSCQGDSGGPLVCFEKDKYILQGVTSWGLGCARPNKPGVYVRVSRFVTWIEGVMRNN
specific activity (agarose-fibrin plates, chromogenic substrate, clot lysis) [1]: 50000-100000 IU/mg
specific activity (agarose-fibrin plates, chromogenic substrate, clot lysis) [2]: 2000-4000 lU/mg
